Data from PMC10407929, “Determining DNA–Protein Binding Affinities and Specificities from Crude Lysates Using a Combined SILAC/TMT Labeling Strategy”.
Values joined by “and” are separate entries in the source; they are usually repeats but may differ in a detail not shown here. Equal entries are not always repeated.

Assays:
Experiment in all cases: pulldown; 150 mM NaCl, 50 mM Tris pH 8.0, 0.25% NP-40, 1 mM DTT; 4 C, 2 h; 100 ug nuclear extract
Settings in all cases: protein: extract; label: 5' biotin (strand 1)
MAZ [1] = target: T1, MAZ (Homo sapiens, UniProt P56270)
T1 sequence: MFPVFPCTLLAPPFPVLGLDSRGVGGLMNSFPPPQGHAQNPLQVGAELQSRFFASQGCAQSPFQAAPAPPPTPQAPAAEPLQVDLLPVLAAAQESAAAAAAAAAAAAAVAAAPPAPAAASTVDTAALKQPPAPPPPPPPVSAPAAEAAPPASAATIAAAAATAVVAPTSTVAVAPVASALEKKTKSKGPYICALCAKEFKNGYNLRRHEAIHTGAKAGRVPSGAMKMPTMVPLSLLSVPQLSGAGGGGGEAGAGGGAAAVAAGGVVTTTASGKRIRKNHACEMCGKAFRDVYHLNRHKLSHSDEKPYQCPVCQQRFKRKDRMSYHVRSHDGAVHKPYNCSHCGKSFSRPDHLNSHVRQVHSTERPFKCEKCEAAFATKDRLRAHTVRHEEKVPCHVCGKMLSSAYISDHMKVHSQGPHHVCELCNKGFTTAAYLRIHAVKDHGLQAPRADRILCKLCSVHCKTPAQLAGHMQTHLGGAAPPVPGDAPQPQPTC

VEZF1 = target: T2, VEZF1 (Homo sapiens, UniProt Q14119)
T2 sequence: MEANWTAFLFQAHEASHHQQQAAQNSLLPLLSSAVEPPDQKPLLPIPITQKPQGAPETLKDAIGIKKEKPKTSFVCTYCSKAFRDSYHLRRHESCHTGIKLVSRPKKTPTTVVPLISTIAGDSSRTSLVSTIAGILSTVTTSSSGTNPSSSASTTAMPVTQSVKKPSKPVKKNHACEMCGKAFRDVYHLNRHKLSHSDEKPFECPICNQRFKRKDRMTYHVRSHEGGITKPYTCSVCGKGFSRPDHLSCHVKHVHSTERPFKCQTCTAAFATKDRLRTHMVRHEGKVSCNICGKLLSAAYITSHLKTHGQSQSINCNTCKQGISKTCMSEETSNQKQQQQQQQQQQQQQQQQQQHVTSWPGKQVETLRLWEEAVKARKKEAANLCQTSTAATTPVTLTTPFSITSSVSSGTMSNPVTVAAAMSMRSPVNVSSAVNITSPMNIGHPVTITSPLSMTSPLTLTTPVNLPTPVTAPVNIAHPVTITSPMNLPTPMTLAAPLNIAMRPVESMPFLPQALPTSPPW

BANP = target: T3, BANP (Homo sapiens, UniProt Q8N9N5)
T3 sequence: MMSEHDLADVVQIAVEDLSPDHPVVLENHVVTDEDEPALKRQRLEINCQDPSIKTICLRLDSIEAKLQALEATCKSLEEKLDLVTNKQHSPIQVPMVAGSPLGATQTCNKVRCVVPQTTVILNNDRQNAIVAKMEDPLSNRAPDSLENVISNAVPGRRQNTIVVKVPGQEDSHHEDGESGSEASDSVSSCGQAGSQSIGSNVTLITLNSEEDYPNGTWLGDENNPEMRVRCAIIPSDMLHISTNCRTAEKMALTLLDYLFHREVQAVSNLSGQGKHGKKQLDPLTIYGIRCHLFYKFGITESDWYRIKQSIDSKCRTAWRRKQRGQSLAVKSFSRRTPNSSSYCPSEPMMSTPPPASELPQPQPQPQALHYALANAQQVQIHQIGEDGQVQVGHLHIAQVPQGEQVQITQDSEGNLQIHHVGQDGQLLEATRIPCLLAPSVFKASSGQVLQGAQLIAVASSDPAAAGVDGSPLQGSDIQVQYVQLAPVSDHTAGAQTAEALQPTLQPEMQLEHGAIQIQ

MAZ [2] = target: T4, MAZ (Homo sapiens, UniProt P56270); remark: listed apart in the source
T4 sequence: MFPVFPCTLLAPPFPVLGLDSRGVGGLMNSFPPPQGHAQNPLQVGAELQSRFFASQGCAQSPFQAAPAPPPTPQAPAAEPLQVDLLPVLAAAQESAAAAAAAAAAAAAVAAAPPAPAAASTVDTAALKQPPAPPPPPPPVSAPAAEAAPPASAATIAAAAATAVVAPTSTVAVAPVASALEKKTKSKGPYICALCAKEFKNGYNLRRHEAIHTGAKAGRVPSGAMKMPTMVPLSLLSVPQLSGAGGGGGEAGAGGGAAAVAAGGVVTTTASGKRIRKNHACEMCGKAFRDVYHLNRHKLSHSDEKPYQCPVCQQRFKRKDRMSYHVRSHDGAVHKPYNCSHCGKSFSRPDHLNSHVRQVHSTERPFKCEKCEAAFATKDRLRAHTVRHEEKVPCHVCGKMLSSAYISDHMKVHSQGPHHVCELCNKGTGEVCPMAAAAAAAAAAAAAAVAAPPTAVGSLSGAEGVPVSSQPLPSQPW

KLF1 = KLF1 (Homo sapiens, UniProt Q13351)
HOXB9 = HOXB9 (Homo sapiens, UniProt P17482)
SP3 = SP3 (Homo sapiens, UniProt Q02447)
TFAP2A = TFAP2A (Homo sapiens, UniProt P05549)
ZNF148 = target: T5, ZNF148 (Homo sapiens, UniProt Q9UQR1)
T5 sequence: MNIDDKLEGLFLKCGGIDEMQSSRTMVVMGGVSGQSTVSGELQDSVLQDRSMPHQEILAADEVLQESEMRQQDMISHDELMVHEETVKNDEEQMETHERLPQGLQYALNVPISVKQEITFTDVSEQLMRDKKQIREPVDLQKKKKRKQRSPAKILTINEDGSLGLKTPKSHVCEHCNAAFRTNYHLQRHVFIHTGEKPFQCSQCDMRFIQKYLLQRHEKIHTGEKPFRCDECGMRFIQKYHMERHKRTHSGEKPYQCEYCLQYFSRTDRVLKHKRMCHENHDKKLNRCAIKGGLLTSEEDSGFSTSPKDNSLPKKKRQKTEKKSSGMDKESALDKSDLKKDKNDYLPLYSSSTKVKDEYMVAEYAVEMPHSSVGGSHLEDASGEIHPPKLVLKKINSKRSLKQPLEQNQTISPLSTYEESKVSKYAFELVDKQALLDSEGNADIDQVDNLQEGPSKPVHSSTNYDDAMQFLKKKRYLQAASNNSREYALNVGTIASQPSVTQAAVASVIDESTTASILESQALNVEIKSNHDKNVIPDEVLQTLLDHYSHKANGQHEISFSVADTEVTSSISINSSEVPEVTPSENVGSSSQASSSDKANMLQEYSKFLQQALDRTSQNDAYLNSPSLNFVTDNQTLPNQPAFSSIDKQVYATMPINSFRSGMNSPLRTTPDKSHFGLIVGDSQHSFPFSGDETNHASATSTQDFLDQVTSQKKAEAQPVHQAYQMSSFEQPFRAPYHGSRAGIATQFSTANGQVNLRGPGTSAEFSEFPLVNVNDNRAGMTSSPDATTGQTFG

SP1 = SP1 (Homo sapiens, UniProt P08047)
KLF12 = KLF12 (Homo sapiens, UniProt Q9Y4X4)
BEND3 = target: T6, BEND3 (Homo sapiens, UniProt Q5T5X7)
T6 sequence: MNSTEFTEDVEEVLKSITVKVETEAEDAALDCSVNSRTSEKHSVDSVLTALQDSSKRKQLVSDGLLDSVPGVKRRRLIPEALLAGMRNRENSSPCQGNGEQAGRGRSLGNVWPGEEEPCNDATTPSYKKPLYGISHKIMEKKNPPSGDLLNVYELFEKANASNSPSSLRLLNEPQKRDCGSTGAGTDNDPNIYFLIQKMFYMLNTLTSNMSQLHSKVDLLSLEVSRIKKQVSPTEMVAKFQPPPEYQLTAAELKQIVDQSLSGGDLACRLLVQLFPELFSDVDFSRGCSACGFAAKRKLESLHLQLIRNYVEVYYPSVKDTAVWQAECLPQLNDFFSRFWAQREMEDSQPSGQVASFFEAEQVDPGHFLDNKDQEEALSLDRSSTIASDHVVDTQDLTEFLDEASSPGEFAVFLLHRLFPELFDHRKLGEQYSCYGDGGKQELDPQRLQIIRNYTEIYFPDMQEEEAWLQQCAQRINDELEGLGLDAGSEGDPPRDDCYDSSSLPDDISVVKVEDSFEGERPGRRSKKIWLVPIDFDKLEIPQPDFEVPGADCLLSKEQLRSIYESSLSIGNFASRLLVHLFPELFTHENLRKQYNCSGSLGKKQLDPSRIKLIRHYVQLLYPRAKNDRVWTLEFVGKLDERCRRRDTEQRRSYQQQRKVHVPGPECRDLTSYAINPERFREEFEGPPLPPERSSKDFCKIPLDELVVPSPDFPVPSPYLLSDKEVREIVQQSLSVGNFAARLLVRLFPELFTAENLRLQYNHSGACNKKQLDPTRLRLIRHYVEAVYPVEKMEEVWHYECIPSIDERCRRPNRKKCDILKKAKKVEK

KLF5 = KLF5 (Homo sapiens, UniProt Q13887)
KLF5, sequence (Q13887 whole entry): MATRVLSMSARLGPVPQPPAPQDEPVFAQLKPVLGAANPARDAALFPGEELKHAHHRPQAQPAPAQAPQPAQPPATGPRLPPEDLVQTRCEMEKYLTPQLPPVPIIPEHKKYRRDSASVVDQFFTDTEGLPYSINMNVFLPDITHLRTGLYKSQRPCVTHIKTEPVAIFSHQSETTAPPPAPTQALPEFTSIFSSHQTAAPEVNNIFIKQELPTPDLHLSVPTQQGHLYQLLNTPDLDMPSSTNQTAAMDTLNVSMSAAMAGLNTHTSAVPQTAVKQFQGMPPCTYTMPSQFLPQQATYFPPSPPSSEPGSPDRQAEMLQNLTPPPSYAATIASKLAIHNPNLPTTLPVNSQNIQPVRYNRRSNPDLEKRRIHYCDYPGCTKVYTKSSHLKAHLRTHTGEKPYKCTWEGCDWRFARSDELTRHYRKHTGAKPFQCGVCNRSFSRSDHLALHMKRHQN

SP1, sequence (P08047 whole entry): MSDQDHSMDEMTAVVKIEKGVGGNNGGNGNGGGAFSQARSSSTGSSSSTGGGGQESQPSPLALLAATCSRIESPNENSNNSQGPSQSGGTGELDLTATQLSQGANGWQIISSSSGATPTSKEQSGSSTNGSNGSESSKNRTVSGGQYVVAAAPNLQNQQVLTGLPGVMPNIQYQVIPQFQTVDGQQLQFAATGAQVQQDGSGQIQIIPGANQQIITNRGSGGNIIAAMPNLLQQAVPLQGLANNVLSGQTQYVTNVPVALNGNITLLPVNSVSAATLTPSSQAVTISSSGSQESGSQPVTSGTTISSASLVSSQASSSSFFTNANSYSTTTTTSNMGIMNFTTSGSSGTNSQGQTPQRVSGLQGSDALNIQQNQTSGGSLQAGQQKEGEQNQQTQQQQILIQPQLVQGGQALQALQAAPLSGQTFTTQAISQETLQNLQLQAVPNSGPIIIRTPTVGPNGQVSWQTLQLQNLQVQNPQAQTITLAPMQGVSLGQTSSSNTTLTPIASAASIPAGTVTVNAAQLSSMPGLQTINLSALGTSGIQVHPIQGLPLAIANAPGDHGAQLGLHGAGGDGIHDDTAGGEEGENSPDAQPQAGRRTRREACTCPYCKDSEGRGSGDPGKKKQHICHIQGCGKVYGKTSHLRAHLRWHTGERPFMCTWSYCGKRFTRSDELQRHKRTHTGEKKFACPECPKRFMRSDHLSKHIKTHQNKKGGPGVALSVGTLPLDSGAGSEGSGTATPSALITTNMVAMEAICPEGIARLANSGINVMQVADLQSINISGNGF
KLF1, sequence (Q13351 whole entry): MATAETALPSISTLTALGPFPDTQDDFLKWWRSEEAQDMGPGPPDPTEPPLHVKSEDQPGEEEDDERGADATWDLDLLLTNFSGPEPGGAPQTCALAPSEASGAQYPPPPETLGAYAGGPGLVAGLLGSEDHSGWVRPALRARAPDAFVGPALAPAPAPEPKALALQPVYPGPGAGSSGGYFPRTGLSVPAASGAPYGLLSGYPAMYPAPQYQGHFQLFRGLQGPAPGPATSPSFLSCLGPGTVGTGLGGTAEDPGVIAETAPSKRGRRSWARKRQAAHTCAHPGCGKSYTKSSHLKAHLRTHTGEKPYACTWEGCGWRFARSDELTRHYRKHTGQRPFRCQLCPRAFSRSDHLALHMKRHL
HOXB9, sequence (P17482 whole entry): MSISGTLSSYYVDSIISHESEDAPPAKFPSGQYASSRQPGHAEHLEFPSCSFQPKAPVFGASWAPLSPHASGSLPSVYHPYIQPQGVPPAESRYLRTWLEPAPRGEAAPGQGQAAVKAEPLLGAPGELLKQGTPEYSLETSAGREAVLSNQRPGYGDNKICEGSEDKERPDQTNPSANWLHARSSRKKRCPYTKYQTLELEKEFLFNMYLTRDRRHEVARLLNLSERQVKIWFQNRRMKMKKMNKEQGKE
KLF12, sequence (Q9Y4X4 whole entry): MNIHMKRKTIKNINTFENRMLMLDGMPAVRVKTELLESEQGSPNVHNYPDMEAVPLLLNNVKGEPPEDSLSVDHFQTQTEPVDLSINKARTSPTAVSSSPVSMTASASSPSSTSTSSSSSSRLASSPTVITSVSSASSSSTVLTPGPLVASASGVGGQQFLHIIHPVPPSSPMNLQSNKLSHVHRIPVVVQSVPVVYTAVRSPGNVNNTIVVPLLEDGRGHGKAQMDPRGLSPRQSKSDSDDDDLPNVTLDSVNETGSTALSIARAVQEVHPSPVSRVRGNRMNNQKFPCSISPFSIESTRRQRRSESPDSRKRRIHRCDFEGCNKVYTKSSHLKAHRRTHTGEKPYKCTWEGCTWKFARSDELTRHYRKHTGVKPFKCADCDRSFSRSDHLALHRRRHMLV
SP3, sequence (Q02447 whole entry): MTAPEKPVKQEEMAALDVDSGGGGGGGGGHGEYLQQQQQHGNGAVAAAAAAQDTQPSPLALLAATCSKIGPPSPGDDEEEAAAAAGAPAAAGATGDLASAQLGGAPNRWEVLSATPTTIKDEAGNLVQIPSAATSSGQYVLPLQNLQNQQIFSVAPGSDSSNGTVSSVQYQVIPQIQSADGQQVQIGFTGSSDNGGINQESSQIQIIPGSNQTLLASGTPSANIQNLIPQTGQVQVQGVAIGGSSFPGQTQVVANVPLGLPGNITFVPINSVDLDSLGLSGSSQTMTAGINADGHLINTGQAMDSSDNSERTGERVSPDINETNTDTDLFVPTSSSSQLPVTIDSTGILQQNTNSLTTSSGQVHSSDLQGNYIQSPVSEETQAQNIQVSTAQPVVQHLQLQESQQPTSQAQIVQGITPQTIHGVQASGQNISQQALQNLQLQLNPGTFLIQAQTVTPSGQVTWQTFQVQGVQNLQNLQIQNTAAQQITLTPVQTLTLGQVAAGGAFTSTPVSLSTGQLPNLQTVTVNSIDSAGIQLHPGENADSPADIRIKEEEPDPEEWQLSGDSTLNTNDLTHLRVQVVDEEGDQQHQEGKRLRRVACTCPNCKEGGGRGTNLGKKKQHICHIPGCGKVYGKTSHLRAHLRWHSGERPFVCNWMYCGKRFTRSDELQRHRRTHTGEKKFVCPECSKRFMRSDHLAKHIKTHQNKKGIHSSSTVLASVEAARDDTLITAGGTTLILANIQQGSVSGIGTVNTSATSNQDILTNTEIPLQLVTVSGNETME
TFAP2A, sequence (P05549 whole entry): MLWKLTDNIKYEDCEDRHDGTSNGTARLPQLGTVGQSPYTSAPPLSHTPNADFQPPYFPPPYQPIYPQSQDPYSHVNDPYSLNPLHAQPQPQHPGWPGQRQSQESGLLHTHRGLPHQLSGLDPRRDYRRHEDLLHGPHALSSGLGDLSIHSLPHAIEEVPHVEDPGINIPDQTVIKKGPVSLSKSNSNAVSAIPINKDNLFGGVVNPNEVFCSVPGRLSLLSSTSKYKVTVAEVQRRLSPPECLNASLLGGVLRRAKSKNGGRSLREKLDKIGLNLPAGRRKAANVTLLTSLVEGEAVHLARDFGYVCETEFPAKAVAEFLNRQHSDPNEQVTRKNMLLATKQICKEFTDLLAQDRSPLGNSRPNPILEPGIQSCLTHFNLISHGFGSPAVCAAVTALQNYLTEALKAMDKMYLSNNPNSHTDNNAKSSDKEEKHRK

B1: CGCG bait (dsDNA)
DNA 1: GCCGCCGCCCTTCTCGCGAGACTGCCGGGCC
DNA 2: GGCCCGGCAGTCTCGCGAGAAGGGCGGCGGC
apparent K (half saturation) (MAZ [1]): 153 nM
apparent K (half saturation) (VEZF1): 333 nM
apparent K (half saturation) (BANP): 6.9 nM and 11.3 nM
apparent K (half saturation) (MAZ [2]): 203 nM
apparent K (half saturation) (KLF1): 83 nM
apparent K (half saturation) (HOXB9): 323 nM

B2: SP/KLF bait (dsDNA)
DNA 1: GAGAGCCCCGCCCCCTGGCT
DNA 2: AGCCAGGGGGCGGGGCTCTC
apparent K (half saturation) (SP3): 6.26 nM
apparent K (half saturation) (TFAP2A): 162 nM
apparent K (half saturation) (ZNF148): 54.2 nM
apparent K (half saturation) (VEZF1): 90.4 nM
apparent K (half saturation) (SP1): 13.8 nM

B3: SP/KLF negative control bait (dsDNA)
DNA 1: GAGAGAAAATAAAACTGGCT
DNA 2: AGCCAGTTTTATTTTCTCTC
apparent K (half saturation) (VEZF1): > 1180 nM

B4: BEND3 bait (dsDNA)
DNA 1: GCCGCCGCCCTCCCACGCGCTGCCGGGCC
DNA 2: GGCCCGGCAGCGCGTGGGAGGGCGGCGGC
apparent K (half saturation) (VEZF1): 110 nM
apparent K (half saturation) (MAZ [2]): 56.4 nM
apparent K (half saturation) (KLF12): 346 nM
apparent K (half saturation) (BEND3): 166 nM
apparent K (half saturation) (SP1): 289 nM
apparent K (half saturation) (KLF5): 227 nM
